Reference: patent US20140087995A1 (published 2014)
Numbered stars: 1 amine (or outer) side, 2 acyl side, 3 side chain; on linkers, the order of the positions; unused ones are H or OH. Bridge positions count the residues as written; N and C are the ends. * marks the point of attachment. C20 diacid = O=C(O)CCCCCCCCCCCCCCCCCCC(=O)*; γGlu = O=C(O)[C@H](CCC(=O)[*:2])N[*:1]

T1: human calcitonin receptor (human, UniProt P30988 25-474)
T1 construct: whole, on cells; also called hCTR; hCT
T1 sequence (looked up): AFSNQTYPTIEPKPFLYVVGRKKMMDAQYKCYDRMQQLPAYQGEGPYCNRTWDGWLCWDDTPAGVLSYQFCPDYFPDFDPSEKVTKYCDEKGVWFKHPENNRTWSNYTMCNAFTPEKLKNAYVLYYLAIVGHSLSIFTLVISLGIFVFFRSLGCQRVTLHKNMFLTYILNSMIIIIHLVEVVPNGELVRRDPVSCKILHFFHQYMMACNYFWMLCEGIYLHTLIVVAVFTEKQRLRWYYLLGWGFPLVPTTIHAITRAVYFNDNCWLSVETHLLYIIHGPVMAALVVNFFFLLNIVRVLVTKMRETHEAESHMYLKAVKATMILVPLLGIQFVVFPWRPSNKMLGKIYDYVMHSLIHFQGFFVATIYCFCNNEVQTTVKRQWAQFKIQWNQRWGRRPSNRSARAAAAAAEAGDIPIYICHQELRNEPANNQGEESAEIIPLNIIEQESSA


Tests used:
[1] = target: T1, human calcitonin receptor; assay: ratio of IC50 at hCTR to IC50 at the human amylin receptor (reference)
Description: The resulting pellet was resuspended, homogenized and centrifuged (20.000 rpm, 15 min) in a buffer containing 20 mM Na-HEPES and 0.1 mM EDTA (pH 7.4, buffer 2). The resulting pellet was resuspended in buffer 2 and protein concentration was measured (BCA protein Assay, Pierce). The homogenate was kept cold during the whole procedure. The membranes were kept at −80° C. until use. The assay was performed in a 384 well Optiplate (PerkinElmer) in a total volume of 40 ul. Membranes were mixed with SPA beads. Final concentration of membranes 35 ng/μL final and SPA beads was 0.05 mg/well. Test-compounds were dissolved in DMSO and further diluted in assay buffer (50 mM Hepes, pH 7.4, 1 mM CaCl2, 5 mM MgCl₂, 0.1% OA and 0.02% Tween20). […] The final mixture was incubated with shaking at 400 rpm for 120 min at 25° C. prior to centrifugation (1500 rpm, 10 min). Samples were analyzed on TopCounter™ (Packard). The IC₅₀ was calculated using (one site binding competition analysis) GraphPad Prism5 as a measure of receptor affinity.
Membranes were prepared in the following way; the cells were rinsed with PBS and incubated with Versene for approximately 5 min before harvesting. The cells were flushed with PBS and the cell-suspension was centrifuged for 5 min at 1000 rpm. Cells were homogenized (Ultrathurrax) in a buffer containing 20 mM Na-HEPES and 10 mM EDTA (pH 7.4) and centrifuged at 20.000 rpm for 15 min. The resulting pellet was resuspended, homogenized and centrifuged (20.000 rpm, 15 min) in a buffer containing 20 mM Na-HEPES and 0.1 mM EDTA (pH 7.4, buffer 2). The resulting pellet was resuspended in buffer 2 and protein concentration was measured (BCA protein Assay, Pierce). The homogenate was kept cold during the whole procedure. The membranes were kept at −80° C. until use. Assay was performed in a 384 well Optiplate (PerkinElmer) in a total volume of 40 ul. Membranes were mixed with SPA beads.

[2] = target: T1, human calcitonin receptor; assay: SPA competition binding, membranes with human calcitonin receptor, displacement of 125I-calcitonin (Assay VII)
Description: Membranes were prepared in the following way; the cells were rinsed with PBS and incubated with Versene for approximately 5 min before harvesting. The cells were flushed with PBS and the cell-suspension was centrifuged for 5 min at 1000 rpm. Cells were homogenized (Ultrathurrax) in a buffer containing 20 mM Na-HEPES and 10 mM EDTA (pH 7.4) and centrifuged at 20.000 rpm for 15 min. The resulting pellet was resuspended, homogenized and centrifuged (20.000 rpm, 15 min) in a buffer containing 20 mM Na-HEPES and 0.1 mM EDTA (pH 7.4, buffer 2). The resulting pellet was resuspended in buffer 2 and protein concentration was measured (BCA protein Assay, Pierce). The homogenate was kept cold during the whole procedure. The membranes were kept at −80° C. until use. Assay was performed in a 384 well Optiplate (PerkinElmer) in a total volume of 40 ul. Membranes were mixed with SPA beads. Final concentration of membranes 35 ng/μL final and Final concentration of SPA beads was 0.05 mg/well. Test-compounds were dissolved in DMSO and further diluted in assay buffer (50 mM Hepes, pH 7.4, 1 mM CaCl2, 5 mM MgCl₂, 0.1% OA and 0.02% Tween20). […] The final mixture was incubated for 120 min with shaking at 400 rpm at 25° C. prior to centrifugation (1500 rpm, 10 min). Samples were analyzed on TopCounter™ (Packard). The […] was calculated using (one site binding competition analysis) GraphPad Prism5 as a measure of receptor affinity.

| Binder | Ratio hCT/hAmylin binding [1] | IC50 [2] [nM] |
| --- | --- | --- |
| {C20 diacid-γGlu}-KCNTATCATQRLAEFLRHSSPNFGAIPSPTNVGSNTY-NH2 (disulfide 2-7; SMILES CC[C@H](C)[C@H](NC(=O)[C@H](C)NC(=O)CNC(=O)[C@H](Cc1ccccc1)NC(=O)[C@H](CC(N)=O)NC(=O)[C@@H]1CCCN1C(=O)[C@H](CO)NC(=O)[C@H](CO)NC(=O)[C@H](Cc1c[nH]cn1)NC(=O)[C@H](CCCNC(=N)N)NC(=O)[C@H](CC(C)C)NC(=O)[C@H](Cc1ccccc1)NC(=O)[C@H](CCC(=O)O)NC(=O)[C@H](C)NC(=O)[C@H](CC(C)C)NC(=O)[C@H](CCCNC(=N)N)NC(=O)[C@H](CCC(N)=O)NC(=O)[C@@H](NC(=O)[C@H](C)NC(=O)[C@@H]1CSSC[C@H](NC(=O)[C@H](CCCCN)NC(=O)CC[C@H](NC(=O)CCCCCCCCCCCCCCCCCCC(=O)O)C(=O)O)C(=O)N[C@@H](CC(N)=O)C(=O)N[C@@H]([C@@H](C)O)C(=O)N[C@@H](C)C(=O)N[C@@H]([C@@H](C)O)C(=O)N1)[C@@H](C)O)C(=O)N1CCC[C@H]1C(=O)N[C@@H](CO)C(=O)N1CCC[C@H]1C(=O)N[C@H](C(=O)N[C@@H](CC(N)=O)C(=O)N[C@H](C(=O)NCC(=O)N[C@@H](CO)C(=O)N[C@@H](CC(N)=O)C(=O)N[C@H](C(=O)N[C@@H](Cc1ccc(O)cc1)C(N)=O)[C@@H](C)O)C(C)C)[C@@H](C)O, also called compound 37) | 2.3 | 2.18 |
| {C20 diacid-γGlu}-KCNTATCATQRLAEFLRHSSPNFGAIPSSTNVGSNTP-NH2 (disulfide 2-7; SMILES CC[C@H](C)[C@H](NC(=O)[C@H](C)NC(=O)CNC(=O)[C@H](Cc1ccccc1)NC(=O)[C@H](CC(N)=O)NC(=O)[C@@H]1CCCN1C(=O)[C@H](CO)NC(=O)[C@H](CO)NC(=O)[C@H](Cc1c[nH]cn1)NC(=O)[C@H](CCCNC(=N)N)NC(=O)[C@H](CC(C)C)NC(=O)[C@H](Cc1ccccc1)NC(=O)[C@H](CCC(=O)O)NC(=O)[C@H](C)NC(=O)[C@H](CC(C)C)NC(=O)[C@H](CCCNC(=N)N)NC(=O)[C@H](CCC(N)=O)NC(=O)[C@@H](NC(=O)[C@H](C)NC(=O)[C@@H]1CSSC[C@H](NC(=O)[C@H](CCCCN)NC(=O)CC[C@H](NC(=O)CCCCCCCCCCCCCCCCCCC(=O)O)C(=O)O)C(=O)N[C@@H](CC(N)=O)C(=O)N[C@@H]([C@@H](C)O)C(=O)N[C@@H](C)C(=O)N[C@@H]([C@@H](C)O)C(=O)N1)[C@@H](C)O)C(=O)N1CCC[C@H]1C(=O)N[C@@H](CO)C(=O)N[C@@H](CO)C(=O)N[C@H](C(=O)N[C@@H](CC(N)=O)C(=O)N[C@H](C(=O)NCC(=O)N[C@@H](CO)C(=O)N[C@@H](CC(N)=O)C(=O)N[C@H](C(=O)N1CCC[C@H]1C(N)=O)[C@@H](C)O)C(C)C)[C@@H](C)O, also called compound 8) | 0.5 | 0.038 |
| {C20 diacid-γGlu}-KCNTATCATQRLAEFLRHSSPNFGAIPSSTPVGSNTY-NH2 (disulfide 2-7; SMILES CC[C@H](C)[C@H](NC(=O)[C@H](C)NC(=O)CNC(=O)[C@H](Cc1ccccc1)NC(=O)[C@H](CC(N)=O)NC(=O)[C@@H]1CCCN1C(=O)[C@H](CO)NC(=O)[C@H](CO)NC(=O)[C@H](Cc1c[nH]cn1)NC(=O)[C@H](CCCNC(=N)N)NC(=O)[C@H](CC(C)C)NC(=O)[C@H](Cc1ccccc1)NC(=O)[C@H](CCC(=O)O)NC(=O)[C@H](C)NC(=O)[C@H](CC(C)C)NC(=O)[C@H](CCCNC(=N)N)NC(=O)[C@H](CCC(N)=O)NC(=O)[C@@H](NC(=O)[C@H](C)NC(=O)[C@@H]1CSSC[C@H](NC(=O)[C@H](CCCCN)NC(=O)CC[C@H](NC(=O)CCCCCCCCCCCCCCCCCCC(=O)O)C(=O)O)C(=O)N[C@@H](CC(N)=O)C(=O)N[C@@H]([C@@H](C)O)C(=O)N[C@@H](C)C(=O)N[C@@H]([C@@H](C)O)C(=O)N1)[C@@H](C)O)C(=O)N1CCC[C@H]1C(=O)N[C@@H](CO)C(=O)N[C@@H](CO)C(=O)N[C@H](C(=O)N1CCC[C@H]1C(=O)N[C@H](C(=O)NCC(=O)N[C@@H](CO)C(=O)N[C@@H](CC(N)=O)C(=O)N[C@H](C(=O)N[C@@H](Cc1ccc(O)cc1)C(N)=O)[C@@H](C)O)C(C)C)[C@@H](C)O, also called compound 31) | 16 | 3.26 |

Results, then the binder that gave them:

| Ratio hCT/hAmylin binding [1] | IC50 [2] [nM] | Binder |
| --- | --- | --- |
| 1 | 0.101 | {C20 diacid-γGlu}-KCNTATCATQRLAEFLRHSSPNFGAIPSSTNVGSDTP-NH2 (disulfide 2-7; SMILES CC[C@H](C)[C@H](NC(=O)[C@H](C)NC(=O)CNC(=O)[C@H](Cc1ccccc1)NC(=O)[C@H](CC(N)=O)NC(=O)[C@@H]1CCCN1C(=O)[C@H](CO)NC(=O)[C@H](CO)NC(=O)[C@H](Cc1c[nH]cn1)NC(=O)[C@H](CCCNC(=N)N)NC(=O)[C@H](CC(C)C)NC(=O)[C@H](Cc1ccccc1)NC(=O)[C@H](CCC(=O)O)NC(=O)[C@H](C)NC(=O)[C@H](CC(C)C)NC(=O)[C@H](CCCNC(=N)N)NC(=O)[C@H](CCC(N)=O)NC(=O)[C@@H](NC(=O)[C@H](C)NC(=O)[C@@H]1CSSC[C@H](NC(=O)[C@H](CCCCN)NC(=O)CC[C@H](NC(=O)CCCCCCCCCCCCCCCCCCC(=O)O)C(=O)O)C(=O)N[C@@H](CC(N)=O)C(=O)N[C@@H]([C@@H](C)O)C(=O)N[C@@H](C)C(=O)N[C@@H]([C@@H](C)O)C(=O)N1)[C@@H](C)O)C(=O)N1CCC[C@H]1C(=O)N[C@@H](CO)C(=O)N[C@@H](CO)C(=O)N[C@H](C(=O)N[C@@H](CC(N)=O)C(=O)N[C@H](C(=O)NCC(=O)N[C@@H](CO)C(=O)N[C@@H](CC(=O)O)C(=O)N[C@H](C(=O)N1CCC[C@H]1C(N)=O)[C@@H](C)O)C(C)C)[C@@H](C)O, also called compound 11) |
| 9.2 | 5.09 | {C20 diacid-γGlu}-KCNTATCATQRLAEFLRHSSPNFGAIPSSTNVGSHTY-NH2 (disulfide 2-7; SMILES CC[C@H](C)[C@H](NC(=O)[C@H](C)NC(=O)CNC(=O)[C@H](Cc1ccccc1)NC(=O)[C@H](CC(N)=O)NC(=O)[C@@H]1CCCN1C(=O)[C@H](CO)NC(=O)[C@H](CO)NC(=O)[C@H](Cc1c[nH]cn1)NC(=O)[C@H](CCCNC(=N)N)NC(=O)[C@H](CC(C)C)NC(=O)[C@H](Cc1ccccc1)NC(=O)[C@H](CCC(=O)O)NC(=O)[C@H](C)NC(=O)[C@H](CC(C)C)NC(=O)[C@H](CCCNC(=N)N)NC(=O)[C@H](CCC(N)=O)NC(=O)[C@@H](NC(=O)[C@H](C)NC(=O)[C@@H]1CSSC[C@H](NC(=O)[C@H](CCCCN)NC(=O)CC[C@H](NC(=O)CCCCCCCCCCCCCCCCCCC(=O)O)C(=O)O)C(=O)N[C@@H](CC(N)=O)C(=O)N[C@@H]([C@@H](C)O)C(=O)N[C@@H](C)C(=O)N[C@@H]([C@@H](C)O)C(=O)N1)[C@@H](C)O)C(=O)N1CCC[C@H]1C(=O)N[C@@H](CO)C(=O)N[C@@H](CO)C(=O)N[C@H](C(=O)N[C@@H](CC(N)=O)C(=O)N[C@H](C(=O)NCC(=O)N[C@@H](CO)C(=O)N[C@@H](Cc1c[nH]cn1)C(=O)N[C@H](C(=O)N[C@@H](Cc1ccc(O)cc1)C(N)=O)[C@@H](C)O)C(C)C)[C@@H](C)O, also called compound 18) |
